Common to all, as to assay: EMSA
Holding throughout (details): EMSA: 30 ng probe in 20 ul, 10 mM Tris-HCl pH 7.4, 50 mM KCl, 5 mM MgCl2, 10% glycerol, room temperature 30 min, 6% PAGE
Background: A gel shift assay detects complexes by their altered migration in electrophoresis.

Data set [1] addresses T1, MetR (Pseudomonas savastanoi pv. phaseolicola 1448A (P. syringae)) (UniProt Q48EZ0).
T1 sequence: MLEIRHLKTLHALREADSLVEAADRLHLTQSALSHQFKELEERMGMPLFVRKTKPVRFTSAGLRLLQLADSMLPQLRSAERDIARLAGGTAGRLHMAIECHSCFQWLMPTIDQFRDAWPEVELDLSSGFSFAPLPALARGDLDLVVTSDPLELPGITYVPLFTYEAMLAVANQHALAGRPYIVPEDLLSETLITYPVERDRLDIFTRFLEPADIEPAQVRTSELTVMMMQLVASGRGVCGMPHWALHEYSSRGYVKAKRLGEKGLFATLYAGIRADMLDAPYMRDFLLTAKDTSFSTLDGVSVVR

Data set [2] deals with T2, PcaQ (Pseudomonas savastanoi pv. phaseolicola 1448A (P. syringae)) (UniProt Q48JW3).
T2 sequence: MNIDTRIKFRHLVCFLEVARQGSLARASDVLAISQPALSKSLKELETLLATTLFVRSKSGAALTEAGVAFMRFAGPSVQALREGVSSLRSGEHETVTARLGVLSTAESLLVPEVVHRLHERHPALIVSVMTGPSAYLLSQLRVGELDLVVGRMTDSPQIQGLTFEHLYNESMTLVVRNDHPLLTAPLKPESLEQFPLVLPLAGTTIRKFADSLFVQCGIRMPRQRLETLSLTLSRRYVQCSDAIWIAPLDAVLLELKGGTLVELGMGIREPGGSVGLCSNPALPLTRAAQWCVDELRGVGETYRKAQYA

Data set [3] concerns the target T3, PSPPH_3297 (Pseudomonas savastanoi pv. phaseolicola 1448A (P. syringae)) (UniProt Q48GM7).
T3 sequence: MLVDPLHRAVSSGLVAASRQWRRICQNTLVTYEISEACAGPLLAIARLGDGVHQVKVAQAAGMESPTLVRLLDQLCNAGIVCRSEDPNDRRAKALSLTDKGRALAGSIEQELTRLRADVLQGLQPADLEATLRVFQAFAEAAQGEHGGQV

In the case of “GGTGCGGCATATCCCGTAGGCTCTGTCATTAAAAATGGCACAATTCTACTAGGCCGTCATTGCCTCCAACATGAATGATTTTCATGCAAAAGCCGCAGCACCACCAAAACCGTTCCGGTTTGCTATCATCCCGTTCTTTAAAGTA (double strand) [PSPPH_2621 promoter]”, the binding entry in data set [1] is recorded as “binds”.

As to “GATGGGTGTTCGGTGATGACTATATGACATCACGGAACCGACTTTAACAGATGAAAAAAATTCAATTACAGGCGAGGTACAGGTTGATCGGCCGCAGACGGCTACTTTTTAAGCGCTATCGGTCGCGCAGCCCCATAAGATAAAGGGCCTGCTCATTTGTATGCA (double strand) [PSPPH_4247 promoter]”, in data set [1], the binding entry was “binds”.

Regarding “CATAGGGGTTGCCAAATGTGTCGAATGCCCCATAAGGTAGCGCTGTCTCATGGAAGGTGACAATGCTTTAT (double strand) [gntR negative control]”, in data set [1], the binding entry is recorded as “no binding”.

In the case of “ACAATTAGTTGAATAATTTCCTTGGATATGAGGAAGGCGGGCTACAGGTGAACGTATAAAAAATCATGGTTTTAGTTATGCATAACCATGAAAATAAAGGAATTTTTATTAAATGTTGGTATTAATCAAAGGCACGTTTAATCACGCCGTCTA (double strand) [katB promoter]”, in data set [2], the binding result is “binds”.

Turning to “TCAAGAATTACAGTTGTGCCTTGCGTCATATGTGATCTGCTTATATGTATATGAAAAAAACTCATTATGAGTCAGTCTTGTATAACGTATTTAATACGGCCCTTTAATCAAACTACAAACACTTTTTTCAGGGGATTTCTGTGAA (double strand) [PSPPH_1024 promoter]”, in data set [1], the binding entry was “binds”.

“GTACCTGCCAGAATGTTGAGGGTGATATTGATCCATAACCTTAGCCTCCTACGCCTCTTTAGCTGGACAGCAAAAATTACCGAATTAGCTAAACATTAGGAATAATTCTAGCATTAGCTGTTCAGCTAACAAAGGCCTAAAAG (double strand) [PSPPH_0985 promoter]”: the binding result in data set [2] is “binds”.

Turning to “TCTACGCCCCCTCAAAAAACCCTTTCGGGCGTCCCTGCAACCCAAAAAGCCCCACTGGGCAGTTACGGGTTGACTGTAAGAACTTGTTACGAGATATTAGTTAGCATACTACTAATATCCTCCCTAACAATATTGTTCCTAACTAAATTGTTCACGACTCAG (double strand) [PSPPH_3297 promoter]”, in data set [3], the binding result is recorded as “binds”.

The values are drawn from article PMC7532196.
